From patent US9931373B2, “Method of reducing cancer cell proliferation by administering recombinant alpha-fetoprotein” (priority 2005, dated 2018)

Columns and labels:
[1] = test system: cells of B-cellular lymphoma Raji; experiment: Nude line mice implanted with Raji lymphoma cells, tumor size; assay type: in vivo; settings: intraperitoneally daily for 20 days, 10 animals, listed as AFP
Excerpt: Anticancer preparations on the base of rAFP and of modified forms thereof may be used for inhibition of the growth of malignant neoplasms, such as primary or metastatic cancer of the liver, blood cancer (leucosis, myeloblastoma, lymphoma), breast cancer, prostate cancer. In order to determine the sensitivity of tumor cells to rAFP, it is possible to use different methods both in vitro and also in vivo. The method of determining activity in vitro is described in the preceding example 8. In order to determine the oncosuppressive action of preparations on the base of AFP in vivo, animal models may be used, for example Nude mice with subcutaneously or intraperitoneally implanted human lines of cancer cells, such as Raji, HepG2, LnCap, MCF-7 and others. For example, cells of B-cellular lymphoma Raji were administered subcutaneously in an amount of 1-5×10^6 per mouse. Administration of the rAFP and derivatives thereof was begun 7 days […] implantation of tumor cells intraperioneally or intravenously in an amount of 1-10 mg/kg. The physiological buffered solution (PBS) was used as a control. The size of the tumor was evaluated by daily measurements with the aid of a micrometer.

[2] = test system: syngeneic leukemia cells P388; experiment: Syngeneic acute leukemia P388 in BDF1 mice, survival over 30 days; assay type: in vivo; settings: rhAFP 25.0 mg/kg
Excerpt: We have studied the effect of combined treatment with AFP+Dox of acute leukemia in mice BDF1 with transplanted intrapleurally syngeneic P388 leukemia cells. BDF-1 mice (84 male, 28 mice per treatment) were implanted with lethal dose of 12×10^6 syngeneic leukemia cells P388 in the pleural region. Animals were subjected to monotherapy with Dox and combined therapy with rhAFP/Dox upon simultaneous single injection of drugs in various doses. Animal survival was compared over 30 days.

[3] = test system: human hepatoma cells HepG2; experiment: Human hepatoma xenografts in Nude mice, rhAFP monotherapy; assay type: in vivo, Balb C/Nude mice
Procedure: To study tumor-suppression upon monotherapy with rhAFP we used in vivo model of human hepatoma xenografts in Nude mice. Balb C/Nude mice 8/group were implanted with 12×10^6 human hepatoma cells HepG2 s/c. rhAFP 10 mg/kg was injected i/p 9 times each 48 hrs during 16 days. Effectiveness of treatment was assessed by measuring and weighting of the tumor at the 30th day of experiment and by comparison of the quantity of mice with tumor during time of observation.

[4] = test system: human hepatoma cells HepG2; experiment: Treatment of HepG2 cells in vitro with rhAFP; assay type: cell-based
Procedure: Results: Without treatment, tumors were determined at 5th-7th day after transplantation.

[5] = test system: embryonal fibroblasts of the lung and human retina; experiment: Growth of primary culture of human embryonal fibroblasts, [H3]-thymidine; assay type: cell-based; settings: 24 hours, FIG. 7
Procedure: Proliferation of the cells was measured by a standard method of [H^3]-thymidine incorporation during the last four hours of culture and expressed in percent of the stimulation of growth in test cultures in respect of a control without AFP.
The primary culture of embryonal fibroblasts of the lung and human retina was obtained by treating with 0.25% trypsin solution corresponding tissues of 5-10 week embryos obtained after legal abortions. The cells were cultures in an RPMI-1640 medium in the presence of a 10% calf fetal serum (CFS). The cytostatic activity of AFP was measured as earlier described (Semenkova, L. 1997, Tumor Biol. 18, 261-274; Dudich E. I., et al., 1998, Tumor Biol. 198, 30-40). Cells in an amount of 4×10^4 in a 0.15 ml medium were intensively washed with a fresh to medium and placed in each cell of a 96-lune plate, then different doses of AFP were added and cultures 24 hours. Proliferation of the cells was measured by a standard method by the inclusion of [H^3]-thymidine during the last four hours of culturing.

[6] = test system: Human Umbilical Vein Endothelial Cells (HUVEC); experiment: Wound healing assay with HUVEC; assay type: cell-based; settings: serum-free medium, 50 μg/ml rhAFP, 18 hrs; HSA as control
Procedure: HUVECs were plated onto the gelatin-coated 24-well plates, and grown for confluence. Than monolayers were wounded by scrapper, and cells were incubated in the serum-free medium with 0.1-0.5 mg/ml of rhAFP or HSA.
To test ability of rhAFP to stimulate regeneration of damaged tissue we established classical wound healing assay with normal Human Umbilical Vein Endothelial Cells (HUVEC) obtained after surgical resection of human vein tissue. HUVEC cells were cultivated in DMEM/F12 medium with addition 10% FBS and 0.1% ECGF on the 60 mm Petri dishes at 37° C. at 5% CO2 atmosphere. HUVECs were plated on gelatin-coated 24-well plates, and grown for confluence, than monolayers were wounded and cells were incubated in serum-free medium with 50 μg/ml rhAFP or 50 μg/ml HSA, healing was observed after 18 hrs incubation. Images of wound healing were taken after staining with crystal violet.

B1: rhAFP: recombinant human alpha-fetoprotein secreted by yeast Saccharomyces cerevisiae YBS723/pKX, glycosylated, mature human AFP sequence SEQ ID NO:2 (protein, listed as Homo sapiens)
chain: TLHRNEYGIASILDSYQCTAEISLADLATIFFAQFVQEATYKEVSKMVKDALTAIEKPTGDEQSSGCLENQLPAFLEELCHEKEILEKYGHSDCCSQSEEGRHNCFLAHKKPTPASIPLFQVPEPVTSCEAYEEDRETFMNKFIYEIARRHPFLYAPTILLWAARYDKIIPSCCKAENAVECFQTKAATVTKELRESSLLNQHACAVMKNFGTRTFQAITVTKLSQKFTKVNFTEIQKLVLDVAHVHEHCCRGDVLDCLQDGEKIMSYICSQQDTLSNKITECCKLTTLERGQCIIHAENDEKPEGLSPNLNRFLGDRDFNQFSSGEKNIFLASFVHEYSRRHPQLAVSVILRVAKGYQELLEKCFQTENPLECQDKGEEELQKYIQESQALAKRSCGLFQKLGEYYLQNAFLVAYTKKAPQLTSSELMAITRKMAATAATCCQLSEDKLLACGEGAADIIIGHLCIRHEMTPVNPGVGQCCTSSYANRRPCFSSLVVDETYVPPAFSDDKFIFHKDLCQAQGVALQTMKQEFLINLVKQKPQITEEQLEAVIADFSGLLEKCCQGQEQEVCFAEEGQKLISKTRAALGV
modifications: yeast glycosylation
Results (number of animals - tumor outcome) ([1]; 0.5 mg AFP per injection): 2-stabilization | Results (number of animals - tumor outcome) ([1]; 0.5 mg AFP per injection, animals where tumor did not develop): 3-tumor did not develop | Results (number of animals - tumor outcome) ([1]; 0.5 mg AFP per injection, animals with 50% tumor inhibition): 5-50% inhibition | Results (number of animals - tumor outcome) ([1]; 1 mg AFP per injection): 2-stabilizaton | Results (number of animals - tumor outcome) ([1]; 1 mg AFP per injection, animals where tumor did not develop): 3-tumor did not develop | Results (number of animals - tumor outcome) ([1]; 1 mg AFP per injection, animals with 50% tumor inhibition): 5-50% inhibition | Results (number of animals - tumor outcome) ([1]; 2 mg AFP per injection): 2-stabilization | Results (number of animals - tumor outcome) ([1]; 2 mg AFP per injection, animals where tumor did not develop): 3-tumor did not develop | Results (number of animals - tumor outcome) ([1]; 2 mg AFP per injection, animals with 50% tumor inhibition): 5-50% inhibition | Survival more 30 days [2]: 0 | T/C % [2]: 118% | T (survival, days) ([2]; single injection): [15.7/21.8] 7.7 [6.4/ days | tumor growth in the period of treatment ([3]; rhAFP 10 mg/kg i/p 9 times each 48 hrs during 16 days): tumors did not grow in the period of treatment | inhibition of total tumor weight relatively to untreated control ([3]; rhAFP 10 mg/kg i/p 9 times each 48 hrs, tumor weighed at 30th day): 90% | effect on HepG2 cells in vitro [4]: dose-dependent growth suppression and apoptosis | stimulating effect on cellular growth in respect to the control [5]: 50-90% | migration of HUVEC to the wounded area [6]: significantly activated the migration of HUVEC to the wounded area
